The chains are these.
B1: SH3 and PX domain-containing protein 2B, residues 155 to 209; numbered along this chain, A1X283 (parent)
chain: EQYVVVANYQKQESSEISLSVGQVVDIIEKNESGWWFVSTAEEQGWVPATCLEGQ

The values below come from the Human Domainome abundance scans (Beltran et al. 2025).

± gives the uncertainty stated by the source.

The variants in the data set derive from B1. The data set can be described thus: abundance fitness (aPCA) (normalised: wild type 0, dead -1); higher = more abundant; growth selection in yeast, the domain comes from the species named. The conditions noted are these: Homo sapiens.
As for EQYVVVANYDKQESSEISLSVGQVVDIIEKNESGWWFVSTAEEQGWVPATCLEGQ [Q10D], the abundance fitness is -0.266 ± 0.18.

Regarding EQYVVVANYGKQESSEISLSVGQVVDIIEKNESGWWFVSTAEEQGWVPATCLEGQ [Q10G], the abundance fitness was -0.322 ± 0.077.

As to EQYVVVANYMKQESSEISLSVGQVVDIIEKNESGWWFVSTAEEQGWVPATCLEGQ [Q10M], the abundance fitness is -0.476 ± 0.14.

For the variant EQYVVVANYIKQESSEISLSVGQVVDIIEKNESGWWFVSTAEEQGWVPATCLEGQ [Q10I], the abundance fitness was -0.128 ± 0.17.

As to EQYVVVANYHKQESSEISLSVGQVVDIIEKNESGWWFVSTAEEQGWVPATCLEGQ [Q10H], the abundance fitness was -0.145 ± 0.21.

On to EQYVVVANYCKQESSEISLSVGQVVDIIEKNESGWWFVSTAEEQGWVPATCLEGQ [Q10C], for which the abundance fitness is -0.135 ± 0.17.

In the case of EQYVVVANYLKQESSEISLSVGQVVDIIEKNESGWWFVSTAEEQGWVPATCLEGQ [Q10L], the abundance fitness is -0.044 ± 0.088.

For EQYVVVANYKKQESSEISLSVGQVVDIIEKNESGWWFVSTAEEQGWVPATCLEGQ [Q10K], the abundance fitness was -0.192 ± 0.15.

For EQYVVVANYAKQESSEISLSVGQVVDIIEKNESGWWFVSTAEEQGWVPATCLEGQ [Q10A], the abundance fitness was determined as 0.003 ± 0.087.

On to EQYVVVANYYKQESSEISLSVGQVVDIIEKNESGWWFVSTAEEQGWVPATCLEGQ [Q10Y], for which the abundance fitness is -0.333 ± 0.23.

For EQYVVVANYEKQESSEISLSVGQVVDIIEKNESGWWFVSTAEEQGWVPATCLEGQ [Q10E], the abundance fitness came to 0.125 ± 0.11.

On to EQYVVVANYRKQESSEISLSVGQVVDIIEKNESGWWFVSTAEEQGWVPATCLEGQ [Q10R], for which the abundance fitness was -0.071 ± 0.096.

Consider EQYVVVANYTKQESSEISLSVGQVVDIIEKNESGWWFVSTAEEQGWVPATCLEGQ [Q10T], for which the abundance fitness is -0.058 ± 0.13.

Consider EQYVVVANYWKQESSEISLSVGQVVDIIEKNESGWWFVSTAEEQGWVPATCLEGQ [Q10W], for which the abundance fitness is -0.334 ± 0.14.

On to EQYVVVANYFKQESSEISLSVGQVVDIIEKNESGWWFVSTAEEQGWVPATCLEGQ [Q10F], for which the abundance fitness is -0.257 ± 0.27.

Regarding EQYVVVAIYQKQESSEISLSVGQVVDIIEKNESGWWFVSTAEEQGWVPATCLEGQ [N8I], the abundance fitness was -0.501 ± 0.18.

As for EQYVVVAQYQKQESSEISLSVGQVVDIIEKNESGWWFVSTAEEQGWVPATCLEGQ [N8Q], the abundance fitness was -0.105 ± 0.14.

In the case of EQYVVVAMYQKQESSEISLSVGQVVDIIEKNESGWWFVSTAEEQGWVPATCLEGQ [N8M], the abundance fitness is -0.305 ± 0.11.

Regarding EQYVVVAKYQKQESSEISLSVGQVVDIIEKNESGWWFVSTAEEQGWVPATCLEGQ [N8K], the abundance fitness was -0.083 ± 0.17.

In the case of EQYVVVAPYQKQESSEISLSVGQVVDIIEKNESGWWFVSTAEEQGWVPATCLEGQ [N8P], the abundance fitness was -0.069 ± 0.15.

In the case of EQYVVVALYQKQESSEISLSVGQVVDIIEKNESGWWFVSTAEEQGWVPATCLEGQ [N8L], the abundance fitness is -0.447 ± 0.075.

Regarding EQYVVVAVYQKQESSEISLSVGQVVDIIEKNESGWWFVSTAEEQGWVPATCLEGQ [N8V], the abundance fitness was -0.296 ± 0.075.

Take EQYVVVAGYQKQESSEISLSVGQVVDIIEKNESGWWFVSTAEEQGWVPATCLEGQ [N8G]: the abundance fitness was determined as 0.012 ± 0.054.

As for EQYVVVAEYQKQESSEISLSVGQVVDIIEKNESGWWFVSTAEEQGWVPATCLEGQ [N8E], the abundance fitness is -0.068 ± 0.092.

Turning to EQYVVVADYQKQESSEISLSVGQVVDIIEKNESGWWFVSTAEEQGWVPATCLEGQ [N8D], the abundance fitness is 0.04 ± 0.11.

For the variant EQYVVVAHYQKQESSEISLSVGQVVDIIEKNESGWWFVSTAEEQGWVPATCLEGQ [N8H], the abundance fitness was -0.102 ± 0.13.

For the variant EQYVVVAAYQKQESSEISLSVGQVVDIIEKNESGWWFVSTAEEQGWVPATCLEGQ [N8A], the abundance fitness was 0.093 ± 0.081.

As to EQYVVVAYYQKQESSEISLSVGQVVDIIEKNESGWWFVSTAEEQGWVPATCLEGQ [N8Y], the abundance fitness is -0.448 ± 0.18.

On to EQYVVVAFYQKQESSEISLSVGQVVDIIEKNESGWWFVSTAEEQGWVPATCLEGQ [N8F], for which the abundance fitness was -0.26 ± 0.12.

Consider EQYVVVAWYQKQESSEISLSVGQVVDIIEKNESGWWFVSTAEEQGWVPATCLEGQ [N8W], for which the abundance fitness is -0.524 ± 0.088.

For the variant EQYVVVATYQKQESSEISLSVGQVVDIIEKNESGWWFVSTAEEQGWVPATCLEGQ [N8T], the abundance fitness was 0.018 ± 0.097.

Turning to EQYVKVANYQKQESSEISLSVGQVVDIIEKNESGWWFVSTAEEQGWVPATCLEGQ [V5K], the abundance fitness was -0.552 ± 0.35.

Consider EQYVWVANYQKQESSEISLSVGQVVDIIEKNESGWWFVSTAEEQGWVPATCLEGQ [V5W], for which the abundance fitness was -0.938 ± 0.16.

Consider EQYVNVANYQKQESSEISLSVGQVVDIIEKNESGWWFVSTAEEQGWVPATCLEGQ [V5N], for which the abundance fitness is -0.946 ± 0.27.

Turning to EQYVPVANYQKQESSEISLSVGQVVDIIEKNESGWWFVSTAEEQGWVPATCLEGQ [V5P], the abundance fitness is -0.892 ± 0.15.

For EQYVLVANYQKQESSEISLSVGQVVDIIEKNESGWWFVSTAEEQGWVPATCLEGQ [V5L], the abundance fitness is -0.919 ± 0.12.

Take EQYVHVANYQKQESSEISLSVGQVVDIIEKNESGWWFVSTAEEQGWVPATCLEGQ [V5H]: the abundance fitness was -1.08 ± 0.31.

For EQYVMVANYQKQESSEISLSVGQVVDIIEKNESGWWFVSTAEEQGWVPATCLEGQ [V5M], the abundance fitness is -0.418 ± 0.15.

Take EQYVRVANYQKQESSEISLSVGQVVDIIEKNESGWWFVSTAEEQGWVPATCLEGQ [V5R]: the abundance fitness is -1.04 ± 0.12.

On to EQYVQVANYQKQESSEISLSVGQVVDIIEKNESGWWFVSTAEEQGWVPATCLEGQ [V5Q], for which the abundance fitness is -0.994 ± 0.24.

EQYVTVANYQKQESSEISLSVGQVVDIIEKNESGWWFVSTAEEQGWVPATCLEGQ [V5T]: the abundance fitness was -0.309 ± 0.34.

EQYVGVANYQKQESSEISLSVGQVVDIIEKNESGWWFVSTAEEQGWVPATCLEGQ [V5G]: the abundance fitness is -0.37 ± 0.064.

In the case of EQYVSVANYQKQESSEISLSVGQVVDIIEKNESGWWFVSTAEEQGWVPATCLEGQ [V5S], the abundance fitness is -0.099 ± 0.076.

Regarding EQYVIVANYQKQESSEISLSVGQVVDIIEKNESGWWFVSTAEEQGWVPATCLEGQ [V5I], the abundance fitness was -0.379 ± 0.14.

Regarding EQYVVFANYQKQESSEISLSVGQVVDIIEKNESGWWFVSTAEEQGWVPATCLEGQ [V6F], the abundance fitness was -0.131 ± 0.21.

Turning to EQYVVYANYQKQESSEISLSVGQVVDIIEKNESGWWFVSTAEEQGWVPATCLEGQ [V6Y], the abundance fitness is -0.262 ± 0.17.

As to EQYVVIANYQKQESSEISLSVGQVVDIIEKNESGWWFVSTAEEQGWVPATCLEGQ [V6I], the abundance fitness is 0.054 ± 0.14.

On to EQYVVPANYQKQESSEISLSVGQVVDIIEKNESGWWFVSTAEEQGWVPATCLEGQ [V6P], for which the abundance fitness is -0.529 ± 0.16.
